From article PMC3828167 (PLoS Pathogens, 2013)

Target: Legionella pneumophila RalF Sec7 domain (LpRalF^Sec7, residues 1-201) (Legionella pneumophila, UniProt Q8RT31 1-201)
Assay: SEC
Conditions: both partners purified

B1: Human Arf1 lacking its N-terminal alpha-helix (Δ17Arf1) (domain or fragment)
chain: not shown
notes: also called Arf1-GDP; nucleotide-free Arf1
B1: binds.
